Measurements published in the supplement of paper PMC10567573.

B1: WEE1 (parent)
chain: INPFTPDSLLLHSSGQCRRRKRTY

Variants of: B1
Assay: protein stability index of a GFP-peptide fusion (GPS, HEK-293T) (PSI 1-6); higher = more stable
Conditions: c terminus: a fixed tail appended
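Also: lentivirally expressed fusions sorted by FACS into six bins by GFP to DsRed ratio, PSI derived from sequencing read proportions per bin multiplied by bin number.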

Variant | protein stability index
INPFTPDSLLLHSSGQCRARKRTY | 3.08
INPFTPDSLLLHSSGQCRGRKRTY | 3.34
INPFTPDSLLLHSSGQCRHRKRTY | 3.32
INPFTPDSLLLHSSGQCRIRKRTY | 3.88
INPFTPDSLLLHSSGQCRLRKRTY | 3.03
INPFTPDSLLLHSSGQCRKRKRTY | 3.32
INPFTPDSLLLHSSGQCRCRKRTY | 3.01
INPFTPDSLLLHSSGQCRERKRTY | 3.8
INPFTPDSLLLHSSGQCRFRKRTY | 2.62
INPFTPDSLLLHSSGQCRDRKRTY | 3.52
INPFTPDSNLLHSSGQCRRRKRTY | 3.83
INPFTPDSTLLHSSGQCRRRKRTY | 3.67
INPFTPDSRLLHSSGQCRRRKRTY | 3.74
INPFTPDSWLLHSSGQCRRRKRTY | 3.32
INPFTPDSQLLHSSGQCRRRKRTY | 3.68
INPFTPDSSLLHSSGQCRRRKRTY | 4.06
INPFTPDSYLLHSSGQCRRRKRTY | 2.63
INPFTPDSVLLHSSGQCRRRKRTY | 3.76
INPFTPDSPLLHSSGQCRRRKRTY | 3.96
INPFTPDSLLLHSQGQCRRRKRTY | 3.89
INPFTPDSLLLHSLGQCRRRKRTY | 2.35
INPFTPDSLLLHSMGQCRRRKRTY | 2.42
INPFTPDSLLLHSVGQCRRRKRTY | 2.62
INPFTPDSLLLHSEGQCRRRKRTY | 4.31

Variant | protein stability index
INPFTPDSLLLHSCGQCRRRKRTY | 2.41
INPFTPDSLLLHSFGQCRRRKRTY | 2.51
INPFTPDSLLLHSIGQCRRRKRTY | 3.16
INPFTPDSLLLHSTGQCRRRKRTY | 3.37
INPFTPDSLLLHSWGQCRRRKRTY | 2.46
INPFTPDSLLLHSRGQCRRRKRTY | 3.81
INPFTPDSLLLHSNGQCRRRKRTY | 3.61
INPFTPDSLLLHSKGQCRRRKRTY | 2.98
INPFTPDSLLLHSPGQCRRRKRTY | 3.54
INPFTPDSLLLHSAGQCRRRKRTY | 3.3
INPFTPDSLLLHSHGQCRRRKRTY | 2.93
INPFTPDSLLLHSYGQCRRRKRTY | 2.36
INPFTPDSLLLHSDGQCRRRKRTY | 3.94
INPFTPDSLLLHSGGQCRRRKRTY | 2.82
INPFTPDSLLLHSSGYCRRRKRTY | 3.52
INPFTPDSLLLHSSGACRRRKRTY | 3.31
INPFTPDSLLLHSSGMCRRRKRTY | 2.92
INPFTPDSLLLHSSGLCRRRKRTY | 2.81
INPFTPDSLLLHSSGPCRRRKRTY | 3.92
INPFTPDSLLLHSSGFCRRRKRTY | 2.65
INPFTPDSLLLHSSGTCRRRKRTY | 3.41
INPFTPDSLLLHSSGVCRRRKRTY | 2.97
INPFTPDSLLLHSSGNCRRRKRTY | 4.03
INPFTPDSLLLHSSGCCRRRKRTY | 2.8

Variant | protein stability index
INPFTPDSLLLHSSGDCRRRKRTY | 3.45
INPFTPDSLLLHSSGHCRRRKRTY | 3.06
INPFTPDSLLLHSSGSCRRRKRTY | 3.61
INPFTPDSLLLHSSGWCRRRKRTY | 2.51
INPFTPDSLLLHSSGECRRRKRTY | 3.69
INPFTPDSLLLHSSGKCRRRKRTY | 3.69
INPFTPDSLLLHSSGRCRRRKRTY | 3.95
INPFTPDSLLLHSSGGCRRRKRTY | 3.5
INPFTPDSLLLHSSGICRRRKRTY | 3.56
INPFTPDSLLLHSSGQDRRRKRTY | 4.42
INPFTPDSLLLHSSGQFRRRKRTY | 3.06
INPFTPDSLLLHSSGQRRRRKRTY | 3.16
INPFTPDSLLLHSSGQSRRRKRTY | 4
INPFTPDSLLLHSSGQVRRRKRTY | 3.22
INPFTPDSLLLHSSGQERRRKRTY | 4.09
INPFTPDSLLLHSSGQHRRRKRTY | 3.44
INPFTPDSLLLHSSGQQRRRKRTY | 4.4
INPFTPDSLLLHSSGQARRRKRTY | 3.64
INPFTPDSLLLHSSGQKRRRKRTY | 4.12
INPFTPDSLLLHSSGQWRRRKRTY | 3.35
INPFTPDSLLLHSSGQMRRRKRTY | 4.1
INPFTPDSLLLHSSGQNRRRKRTY | 3.85
INPFTPDSLLLHSSGQLRRRKRTY | 4
INPFTPDSLLLHSSGQYRRRKRTY | 3.04

Variant | protein stability index
INPFTPDSLLLHSSGQIRRRKRTY | 4.01
INPFTPDSLLLHSSGQTRRRKRTY | 4.03
INPFTPDSLLLHSSGQGRRRKRTY | 3.69
INPFTPDSLLLHSSGQPRRRKRTY | 4.37
INPFTPDSLDLHSSGQCRRRKRTY | 3.9
INPFTPDSLCLHSSGQCRRRKRTY | 3.68
INPFTPDSLALHSSGQCRRRKRTY | 3.96
INPFTPDSLPLHSSGQCRRRKRTY | 4.07
INPFTPDSLVLHSSGQCRRRKRTY | 3.81
INPFTPDSLKLHSSGQCRRRKRTY | 3.2
INPFTPDSLFLHSSGQCRRRKRTY | 3.42
INPFTPDSLRLHSSGQCRRRKRTY | 3.76
INPFTPDSLELHSSGQCRRRKRTY | 3.41
INPFTPDSLNLHSSGQCRRRKRTY | 3.85
INPFTPDSLMLHSSGQCRRRKRTY | 3.38
INPFTPDSLGLHSSGQCRRRKRTY | 3.83
INPFTPDSLQLHSSGQCRRRKRTY | 3.5
INPFTPDSLYLHSSGQCRRRKRTY | 2.89
INPFTPDSLILHSSGQCRRRKRTY | 3.61
INPFTPDSLWLHSSGQCRRRKRTY | 3.43
INPFTPDSLTLHSSGQCRRRKRTY | 4.03
INPFTPDSLHLHSSGQCRRRKRTY | 4.01
INPFTPDSLSLHSSGQCRRRKRTY | 3.88
INPFTPDSLLLYSSGQCRRRKRTY | 2.89

Variant | protein stability index
INPFTPDSLLLESSGQCRRRKRTY | 4.06
INPFTPDSLLLPSSGQCRRRKRTY | 3.4
INPFTPDSLLLQSSGQCRRRKRTY | 2.94
INPFTPDSLLLNSSGQCRRRKRTY | 3.19
INPFTPDSLLLTSSGQCRRRKRTY | 3.45
INPFTPDSLLLGSSGQCRRRKRTY | 3.18
INPFTPDSLLLLSSGQCRRRKRTY | 2.86
INPFTPDSLLLMSSGQCRRRKRTY | 3.32
INPFTPDSLLLRSSGQCRRRKRTY | 3.59
INPFTPDSLLLKSSGQCRRRKRTY | 3.54
INPFTPDSLLLWSSGQCRRRKRTY | 2.19
INPFTPDSLLLASSGQCRRRKRTY | 3.61
INPFTPDSLLLCSSGQCRRRKRTY | 2.57
INPFTPDSLLLFSSGQCRRRKRTY | 3.03
INPFTPDSLLLISSGQCRRRKRTY | 3.6
INPFTPDSLLLSSSGQCRRRKRTY | 3.87
INPFTPDSLLLHHSGQCRRRKRTY | 4.14
INPFTPDSLLLHQSGQCRRRKRTY | 3.44
INPFTPDSLLLHVSGQCRRRKRTY | 2.61
INPFTPDSLLLHMSGQCRRRKRTY | 2.84
INPFTPDSLLLHDSGQCRRRKRTY | 4.08
INPFTPDSLLLHGSGQCRRRKRTY | 3.17
INPFTPDSLLLHRSGQCRRRKRTY | 3.12
INPFTPDSLLLHISGQCRRRKRTY | 2.85

Variant | protein stability index
INPFTPDSLLLHWSGQCRRRKRTY | 2.54
INPFTPDSLLLHLSGQCRRRKRTY | 2.64
INPFTPDSLLLHESGQCRRRKRTY | 4.01
INPFTPDSLLLHASGQCRRRKRTY | 2.6
INPFTPDSLLLHFSGQCRRRKRTY | 2.3
INPFTPDSLLLHYSGQCRRRKRTY | 3.29
INPFTPDSLLLHCSGQCRRRKRTY | 2.21
INPFTPDSLLLHKSGQCRRRKRTY | 3.69
INPFTPDSLLLHTSGQCRRRKRTY | 3.74
INPFTPDSLLLHNSGQCRRRKRTY | 3.74
INPFTPDSLLLHPSGQCRRRKRTY | 3.63
INPFTPDSLLLHSSKQCRRRKRTY | 3.85
INPFTPDSLLLHSSSQCRRRKRTY | 3.02
INPFTPDSLLLHSSHQCRRRKRTY | 2.72
INPFTPDSLLLHSSPQCRRRKRTY | 3.05
INPFTPDSLLLHSSMQCRRRKRTY | 2.84
INPFTPDSLLLHSSDQCRRRKRTY | 3.39
INPFTPDSLLLHSSRQCRRRKRTY | 4.12
INPFTPDSLLLHSSWQCRRRKRTY | 2.54
INPFTPDSLLLHSSCQCRRRKRTY | 2.26
INPFTPDSLLLHSSIQCRRRKRTY | 2.92
INPFTPDSLLLHSSYQCRRRKRTY | 2.9
INPFTPDSLLLHSSFQCRRRKRTY | 1.99
INPFTPDSLLLHSSTQCRRRKRTY | 3.21

Variant | protein stability index
INPFTPDSLLLHSSQQCRRRKRTY | 3.72
INPFTPDSLLLHSSNQCRRRKRTY | 3.89
INPFTPDSLLLHSSLQCRRRKRTY | 3.56
INPFTPDSLLLHSSEQCRRRKRTY | 3.41
INPFTPDSLLLHSSAQCRRRKRTY | 3.71
INPFTPDSLLLHSSVQCRRRKRTY | 2.79
INPFTPDSLLLHSSGQCHRRKRTY | 3.39
INPFTPDSLLLHSSGQCTRRKRTY | 3.48
INPFTPDSLLLHSSGQCFRRKRTY | 2.9
INPFTPDSLLLHSSGQCARRKRTY | 3.46
INPFTPDSLLLHSSGQCLRRKRTY | 3.2
INPFTPDSLLLHSSGQCIRRKRTY | 2.86
INPFTPDSLLLHSSGQCERRKRTY | 3.67
INPFTPDSLLLHSSGQCKRRKRTY | 3.26
INPFTPDSLLLHSSGQCMRRKRTY | 2.81
INPFTPDSLLLHSSGQCVRRKRTY | 3.83
INPFTPDSLLLHSSGQCYRRKRTY | 3.58
INPFTPDSLLLHSSGQCNRRKRTY | 3.12
INPFTPDSLLLHSSGQCPRRKRTY | 3.57
INPFTPDSLLLHSSGQCCRRKRTY | 2.94
INPFTPDSLLLHSSGQCSRRKRTY | 3.41
INPFTPDSLLLHSSGQCDRRKRTY | 3.78
INPFTPDSLLLHSSGQCQRRKRTY | 3.63
INPFTPDSLLLHSSGQCWRRKRTY | 2.29

Variant | protein stability index
INPFTPDSLLLHSSGQCGRRKRTY | 3.31
INPFTPDSLLAHSSGQCRRRKRTY | 3.76
INPFTPDSLLSHSSGQCRRRKRTY | 3.96
INPFTPDSLLDHSSGQCRRRKRTY | 4.11
INPFTPDSLLWHSSGQCRRRKRTY | 2.99
INPFTPDSLLNHSSGQCRRRKRTY | 3.92
INPFTPDSLLRHSSGQCRRRKRTY | 3.38
INPFTPDSLLPHSSGQCRRRKRTY | 4.55
INPFTPDSLLEHSSGQCRRRKRTY | 4.42
INPFTPDSLLFHSSGQCRRRKRTY | 3.01
INPFTPDSLLTHSSGQCRRRKRTY | 3.54
INPFTPDSLLHHSSGQCRRRKRTY | 3.47
INPFTPDSLLKHSSGQCRRRKRTY | 4.2
INPFTPDSLLIHSSGQCRRRKRTY | 3.97
INPFTPDSLLGHSSGQCRRRKRTY | 3.95
INPFTPDSLLMHSSGQCRRRKRTY | 3.94
INPFTPDSLLVHSSGQCRRRKRTY | 3.04
INPFTPDSLLQHSSGQCRRRKRTY | 3.39
INPFTPDSLLYHSSGQCRRRKRTY | 3.75
INPFTPDSLLCHSSGQCRRRKRTY | 3.75
